This is an account of results in the Immune Epitope Database (IEDB).

For orientation: Kd means the equilibrium constant for the complex coming apart. The term IC50 denotes the concentration that inhibits the measured activity by half. Higher therefore signals weaker potency.

The target of experiment [1] is HLA-B*15:17. As to the kind of experiment: IEDB peptide-MHC binding, purified MHC/direct/fluorescence; filed as Kd, often an IC50 or EC50 that approximates it; ≥ and ≤ were set here for values at or beyond the usual limits of such assays.
Experiment [2] concerns the target HLA-B*57:01. The description is as above.
Experiment [3] addresses HLA-B*54:01. The experiment can be described thus: IEDB peptide-MHC binding, purified MHC/competitive/radioactivity; filed as Kd, often an IC50 or EC50 that approximates it; ≥ and ≤ were set here for values at or beyond the usual limits of such assays.
Experiment [4] addresses HLA-B*53:01. The description is as above.
Experiment [5] deals with HLA-B*35:01. The description is as above.
Experiment [6] deals with HLA-B*07:02. The description is as above.
Experiment [7] deals with HLA-B*51:01. The description is as above.
The target of experiment [8] is HLA-B*58:01. The experiment can be described thus: IEDB peptide-MHC binding, purified MHC/direct/fluorescence; filed as Kd, often an IC50 or EC50 that approximates it; ≥ and ≤ were set here for values at or beyond the usual limits of such assays.
The target of experiment [9] is HLA-B*48:01. The description is as above.
Experiment [10] has as its target HLA-A*11:01. As to the kind of experiment: IEDB peptide-MHC binding, purified MHC/competitive/fluorescence; ≥ and ≤ were set here for values at or beyond the usual limits of such assays.
Experiment [11] concerns the target HLA-A*02:01. The experiment is described as above. As to conditions: source organism: Zaire ebolavirus.
In experiment [12] the target is HLA-B*40:01. The experiment can be described thus: IEDB peptide-MHC binding, purified MHC/direct/fluorescence; filed as Kd, often an IC50 or EC50 that approximates it; ≥ and ≤ were set here for values at or beyond the usual limits of such assays.
The target of experiment [13] is HLA-B*44:02. The description is as above.
Experiment [14] concerns the target HLA-A*31:01. The experiment is described as above.
Experiment [15] concerns the target HLA-A*03:01. Described as above.
The target of experiment [16] is HLA-A*01:01. The experiment is described as above.
Experiment [17] addresses HLA-B*18:01. Described as above.
Experiment [18] deals with HLA-A*11:01. The experiment is described as above. As to conditions: source organism: Mycobacterium tuberculosis variant bovis BCG str. Pasteur 1173P2.
The target in experiment [19] is HLA-B*46:01. The description is as above.
Experiment [20] deals with HLA-B*08:01. The experiment is described as above.
The target of experiment [21] is HLA-A*69:01. Described as above. The conditions noted are these: source organism: Mycobacterium tuberculosis variant bovis BCG str. Pasteur 1173P2.
Experiment [22] deals with HLA-B*27:05. Described as above.
Experiment [23] has as its target HLA-A*26:01. As to the kind of experiment: IEDB peptide-MHC binding, purified MHC/competitive/fluorescence; filed as Kd, often an IC50 or EC50 that approximates it; ≥ and ≤ were set here for values at or beyond the usual limits of such assays.
The target of experiment [24] is HLA-B*15:01. The experiment can be described thus: IEDB peptide-MHC binding, purified MHC/direct/fluorescence; filed as Kd, often an IC50 or EC50 that approximates it; ≥ and ≤ were set here for values at or beyond the usual limits of such assays. As to conditions: source organism: Mammarenavirus juninense.
Experiment [25] has as its target HLA-B*07:02. The experiment is described as above. As to conditions: source organism: Mammarenavirus juninense.
Experiment [26] concerns the target HLA-A*02:01. The description is as above. The conditions noted are these: source organism: Mammarenavirus juninense.
Where [27] appears, read: source organism: West Nile virus.
Setting [28] is: source organism: Vaccinia virus WR.
[29] abbreviates: source organism: Cryptosporidium parvum.
Where [30] appears, read: source organism: Mammarenavirus lassaense.
Where [31] appears, read: source organism: Zaire ebolavirus.
The mark [32] stands for this setting: source organism: Mycobacterium tuberculosis variant bovis BCG str. Pasteur 1173P2.
Setting [33] is: source organism: Mammarenavirus whitewaterense.
Where [34] appears, read: source organism: Mammarenavirus juninense.
Setting [35] is: source organism: SARS coronavirus Tor2.
Setting [36] is: source organism: Listeria monocytogenes serotype 4b str. H7858.
[37] abbreviates: source organism: Camelpox virus M-96.
Setting [38] is: source organism: Triticum aestivum.

For RVLEMVEDW, the Kd is 0.0432 µM in experiment [1] (setting [27]) and 0.0879 µM in [2] (setting [27]).

As for DPGNPNCLEW, the Kd in experiment [3] (setting [28]) is no less than 69.9 µM; in experiment [4] (setting [28]) it was 0.00664 µM; in [5] (setting [28]) it was no less than 56.5 µM; in experiment [6] (setting [28]) it was no less than 69.6 µM; in [7] (setting [28]), no less than 69.6 µM.

As for KACPPGFVF, the Kd in [1] (setting [29]) is 0.143 µM; in experiment [2] (setting [29]) it was 2.48 µM; in [8] (setting [29]), 0.0177 µM.

In the case of EQLGVPLHL, the Kd in experiment [9] (source organism: Vibrio alginolyticus 12G01) was 0.488 µM.

For the sequence PPLISILMIF, the Kd in [3] (setting [28]) is 3.12 µM; in experiment [4] (setting [28]) it was 0.497 µM; in experiment [5] (setting [28]) it was 0.761 µM; in experiment [6] (setting [28]), 0.27 µM; in experiment [7] (setting [28]), 2.02 µM.

As for YPNSSDLDM, the Kd is no less than 53.9 µM in experiment [3] (setting [30]); 0.0141 µM in [4] (setting [30]); 0.00823 µM in experiment [5] (setting [30]); 0.233 µM in experiment [6] (setting [30]); 0.78 µM in experiment [7] (setting [30]).

In the case of VVAFLILPQ, the IC50 was no less than 1240 µM in experiment [10] (setting [31]) and no less than 1420 µM in [11].

The sequence HGEYAPFAR gave an IC50 in [10] (setting [31]) of 61.7 µM.

IIRVTSELL: the Kd in experiment [12] (setting [32]), in experiment [13] (setting [32]), in [14] (setting [32]), in [2] (setting [32]), in [15] (setting [32]) and in [16] (setting [32]) was no less than 20 µM in each case. The Kd is no less than 20 µM in experiment [17] (setting [32]); no less than 20 µM in [18]; no less than 20 µM in experiment [19] (setting [32]); 13 µM in experiment [20] (setting [32]); no less than 20 µM in [9] (setting [32]); no less than 20 µM in experiment [21]. Moreover, the Kd in experiment [22] (setting [32]) and in [8] (setting [32]) was no less than 20 µM throughout.

LPPFTQHLL: the Kd was 3.03 µM in [3] (setting [28]); 0.0913 µM in experiment [4] (setting [28]); 0.24 µM in experiment [5] (setting [28]); 0.401 µM in experiment [6] (setting [28]); 0.0186 µM in experiment [7] (setting [28]).

In the case of TPVYKLDIS, the IC50 was 65.8 µM in experiment [10] (setting [31]) and no less than 170 µM in experiment [11].

Take YTYATRGIY: the Kd in experiment [23] (source organism: Yersinia pestis Nepal516) was 0.0062 µM.

For NPTNISKCF, the Kd in experiment [3] (setting [33]) is 3.47 µM; in experiment [4] (setting [33]) it was 0.0777 µM; in experiment [5] (setting [33]) it was 0.199 µM; in experiment [6] (setting [33]), 8.66 µM; in experiment [7] (setting [33]) it was 5.74 µM.

As to DLKLVDVKL, the Kd in experiment [12] (setting [34]), in experiment [13] (setting [34]), in experiment [14] (setting [34]), in [2] (setting [34]), in experiment [15] (setting [34]) and in experiment [16] (setting [34]) was no less than 20 µM each time. Moreover, the Kd in experiment [17] (setting [34]), in [19] (setting [34]), in experiment [20] (setting [34]), in experiment [24], in [25] and in experiment [26] was no less than 20 µM in each case. In addition, the Kd in experiment [9] (setting [34]), in [22] (setting [34]) and in experiment [8] (setting [34]) was no less than 20 µM in each case.

As to APAICHEGKA, the Kd in [3] (setting [35]) was 1.47 µM; in [4] (setting [35]), 17.3 µM; in [5] (setting [35]), no less than 53.5 µM; in experiment [6] (setting [35]), 2.01 µM; in experiment [7] (setting [35]), no less than 43 µM.

KSAYPFDEL: the Kd in experiment [1] (source organism: Listeria monocytogenes) is 0.134 µM; in experiment [2] (setting [36]), no less than 20 µM; in experiment [8] (setting [36]), 0.046 µM.

Consider IPYSRVNHA, for which the Kd in experiment [3] (setting [28]) came out at 0.000133 µM; in [4] (setting [28]), 0.177 µM; in experiment [5] (setting [28]), 0.0572 µM; in experiment [6] (setting [28]) it was 0.00663 µM; in experiment [7] (setting [28]), 0.0232 µM.

The sequence VLTGGTGVG had an IC50 in [10] (source organism: Variola virus) of no less than 80.6 µM.

In experiment [10] (setting [31]), GEWAFWETK came in with an IC50 of 58 µM.

Regarding FPAQPGLTSA, the Kd in experiment [3] (setting [30]) was 0.00639 µM; in [4] (setting [30]) it was 2.91 µM; in experiment [5] (setting [30]), 0.051 µM; in experiment [6] (setting [30]), 0.0496 µM; in [7] (setting [30]), no less than 32.3 µM.

Consider EPSGNNYHIL, for which the Kd was 15.5 µM in experiment [3] (setting [28]); 2.96 µM in [4] (setting [28]); 8.08 µM in [5] (setting [28]); 1.67 µM in experiment [6] (setting [28]); no less than 69.6 µM in [7] (setting [28]).

KPFNNILNLI: the Kd in experiment [3] (setting [28]) is no less than 69.9 µM; in experiment [4] (setting [28]), no less than 69.9 µM; in experiment [5] (setting [28]), no less than 69.9 µM; in experiment [6] (setting [28]), 1.14 µM; in experiment [7] (setting [28]), no less than 10 µM.

DTVHDRTPY yielded a Kd in experiment [23] (source organism: Influenza A virus (A/Waikato/7/2000(H3N2))) of 0.0414 µM.

With KSVTKSSSW, the Kd in experiment [1] (setting [37]) is no more than 0.001 µM; in experiment [2] (setting [37]), 0.108 µM; in [8] (setting [37]) it was 0.0162 µM.

Take TPLHKYCVNL: the Kd is 4.86 µM in experiment [3] (setting [28]); 0.891 µM in experiment [4] (setting [28]); 7.36 µM in experiment [5] (setting [28]); 0.0113 µM in experiment [6] (setting [28]); no less than 37.1 µM in experiment [7] (setting [28]).

Turning to IPTNFSISI, the Kd in [3] (setting [35]) was found to be 0.0499 µM; in [4] (setting [35]), 0.0107 µM; in experiment [5] (setting [35]), 0.0312 µM; in experiment [6] (setting [35]), 0.0641 µM; in experiment [7] (setting [35]), 0.0571 µM.

On to SPLPSLEYGA, for which the Kd was 0.000204 µM in [3] (setting [28]); 12.4 µM in [4] (setting [28]); 6 µM in experiment [5] (setting [28]); 1.64 µM in experiment [6] (setting [28]); no less than 69.6 µM in experiment [7] (setting [28]).

Turning to LPMIIGEPII, the Kd in [3] (setting [28]) was found to be 0.0311 µM; in [4] (setting [28]), 0.0333 µM; in experiment [5] (setting [28]), 0.75 µM; in experiment [6] (setting [28]), 0.00912 µM; in experiment [7] (setting [28]), 0.456 µM.

DPDHYKDYA: the Kd in experiment [3] (setting [28]) is 7.01 µM; in experiment [4] (setting [28]), no less than 75.5 µM; in experiment [5] (setting [28]), no less than 77.4 µM; in experiment [6] (setting [28]), 14.8 µM; in experiment [7] (setting [28]), no less than 22.5 µM.

For the sequence SPTEMVDVSM, the Kd in experiment [3] (setting [28]) is no less than 42.7 µM; in experiment [4] (setting [28]), 1.94 µM; in experiment [5] (setting [28]) it was 0.0372 µM; in experiment [6] (setting [28]), 0.122 µM; in experiment [7] (setting [28]), no less than 69.6 µM.

On to FPSQQPYL, for which the Kd is 4.33 µM in [3] (setting [38]); 0.323 µM in experiment [4] (setting [38]); 0.735 µM in experiment [5] (setting [38]); 1.03 µM in experiment [6] (setting [38]); 0.00353 µM in [7] (setting [38]).

Turning to WRTIMAVLF, in [9] (source organism: dengue virus type 4), the Kd was no less than 20 µM.
